Source: patent US20200308301A1 (Novartis, published 2020)

What was measured:
[1] = target: T1, NOV1401; assay: Solution equilibrium titration (SET), 1:1 fit, average
T1 construct: It was amine-coupled to the chip in SPR, and used soluble and biotinylated in SET; also called anti-FXI/FXIa antibody NOV1401; anti-Factor XI/FXIa antibody NOV1401
Experimental: (§1) 14 serial (2×) dilutions of NOV1401 were prepared in sample buffer (PBS pH 7.4 containing 0.5% (w/v) BSA and 0.02% Tween 20) and a constant concentration of the anti-NOV1401 Fab or IgG was added to each NOV1401 concentration ranging from 40 pM to 240 pM. Optimal constant anti-NOV1401 Fab or IgG concentrations and optimal starting concentrations for NOV1401 dilution series were determined in pilot experiments.
(§2) After incubation and three times washing with PBST (PBS containing 0.05% Tween 20) 30 μl/well of the NOV1401/anti-NOV1401 Fab or IgG preparation was transferred from the polypropylene MTP to the NOV1401-coated SA plate and incubated for 30 min at RT on a MTP shaker. After three additional wash steps, 30 μl of 0.5 μg/ml detection antibody (Goat anti-human Kappa LC-HRP, BETHYL # A80-115P) diluted in sample buffer was added to each well and incubated for 1 h at RT with shaking. After washing the plate again three times, 30 μl of detection reagent (LumiGLO Peroxidase Chemiluminescent Substrate, KPL #54-61-01) was added to each well. Electrochemiluminescence (ECL) signals were generated and detected immediately with a luminescence imager (SpectraMax M5, Molecular Devices, LLC).
Average ECL-signals were calculated from duplicate measurements within each assay. Data were baseline adjusted by subtracting the lowest value from all data points and plotted against the corresponding antigen concentration. KD values were determined by fitting the plot with the following non-linear curve fitting model for 1:1 binding according to Haenel et al 2005: […]

[2] = target: T1, NOV1401; assay: cell-based or functional assay
[3] = target: T1, NOV1401; assay: cell-based or functional assay; remark: listed apart in the source
[4] = target: T1, NOV1401; assay: SPR (ProteOn XPR36), NOV1401 immobilized, Fab as analyte, 1:1 Langmuir fit, average
Experimental: SPR binding experiments were performed on a ProteOn XPR36 instrument (Bio-Rad Laboratories, Inc.) in PBS/T buffer (50 mM phosphate, 150 mM NaCl, pH 7.4, 0.005% v/v Tween-20) at 25° C. NOV1401 (‘Ligand’) was immobilized onto an activated ProteOn GLC sensor chip (Bio-Rad Laboratories, Inc.) using standard amine coupling procedures as described by the manufacturer. Briefly, NOV1401 was injected at a concentration of 10 μg/ml in 20 mM sodium acetate, pH 5.0 and at a flow rate of 30 μl/min for 10 min. Unreacted groups were blocked by injecting 1 M ethanolamine.
For kinetic studies anti-NOV1401 Fabs (‘Analytes’) were diluted in PBS/T buffer to generate a dilution series with concentrations ranging from 0.125-4 nM. Fabs were injected onto surfaces with immobilized NOV1401 at a flow rate of 100 μL/min and sensorgrams were recorded for association and dissociation times of 220 s and 1800 s, respectively. Blank surfaces were used for background corrections. There was no need to regenerate surfaces since the ProteOn protein interaction array system allows to run up to six binding experiments on an identical surface in parallel.
Data processing and analysis including kon, koff, and KD determination were performed with the ProteOn Manager™ software version 3.1.0.6.

[5] = target: T1, NOV1401; assay: SET (solution equilibrium titration): constant anti-NOV1401 Fab with a NOV1401 dilution series, free Fab captured on a biotinylated-NOV1401 streptavidin plate, luminescence (RLU), 1:1 fit
Experimental: as §1
as §2, with “After washing the plate again three times, 30 μl of detection reagent (LumiGLO Peroxidase Chemiluminescent Substrate, KPL #54-61-01) was added to each well.” left out
Target sequence in this assay (VL, as listed by the source): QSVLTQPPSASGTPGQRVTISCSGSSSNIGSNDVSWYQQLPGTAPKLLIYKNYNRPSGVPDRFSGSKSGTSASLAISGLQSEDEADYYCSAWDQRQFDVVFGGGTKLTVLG
Average ECL-signals were calculated from duplicate measurements within each assay. […] KD values were determined by fitting the plot with the following non-linear curve fitting model for 1:1 binding according to Haenel et al 2005: […]

| Binder | Kd [1] [nM] | TGA percentage reversal, NOV1401/anti NOV1401 ratio 1/1 (n/n) [2] [%] | TGA percentage reversal, NOV1401/anti NOV1401 ratio 1/3 (n/n) [2] [%] | TGA percentage reversal, NOV1401/anti NOV1401 ratio 1/10 (n/n) [2] [%] | aPTT percentage reversal, NOV1401/anti NOV1401 ratio 1/1 (n/n) [3] [%] | aPTT percentage reversal, NOV1401/anti NOV1401 ratio 1/3 (n/n) [3] [%] | aPTT percentage reversal, NOV1401/anti NOV1401 ratio 1/10 (n/n) [3] [%] | Kd [4] [nM] | Kd [5] [nM] |
| --- | --- | --- | --- | --- | --- | --- | --- | --- | --- |
| IDT2 (Fab, V domains shown, Fab; also called anti-NOV1401 Fab IDT2) VH: QVQLVESGGGLVKPGGSLRLSCAASGFTFSSAAVHWVRQAPGKGLEWVGRIKSKADGGTTDYAAPVKGRFTISRDDSKNTLYLQMNSLKTEDTAVYYCARDSPSISSYSIPYFSGMDVWGQGTLVTVSS VL: DIQMTQSPSSLSASVGDRVTITCRASQGIRAWLNWYQQKPGKAPKLLIYAASSLQSGVPSRFSGSGSGTDFTLTISSLQPEDFATYYCHQYITHPPTFGQGTKVEIKR | 0.1 | 55 | 57 | 61 | 21 | 42 | 55 | 0.23 |  |
| IDT9 (Fab, V domains shown, Fab; also called anti-NOV1401 Fab IDT9) VH: QVQLVQSGAEVKKPGASVKVSCKASGYTFTNYYVHWVRQAPGQGLEWMGWINPYNGNTNYAQKFQGRVTMTRDTSISTAYMELSRLRSEDTAVYYCARGASSIRMSYYLDVWGQGTLVTVSS VL: DIQMTQSPSSLSASVGDRVTITCRASQSISNYLNWYQQKPGKAPKLLIYAASNLQSGVPSRFSGSGSGTDFTLTISSLQPEDFATYYCFQYTHSPATFGQGTKVEIKR | 0.68 | 41 | 61 | 72 | 10 | 25 | 46 | 1.92 |  |
| IDT7 (Fab, V domains shown, Fab; also called anti-NOV1401 Fab IDT7) VH: QVQLVESGGGLVKPGGSLRLSCAASGFTFSSNAMHWVRQAPGKGLEWVGRIKSKTDGGTTDYAAPVKGRFTISRDDSKNTLYLQMNSLKTEDTAVYYCARDHYYYPFAYWGQGTLVTVSS VL: DIQMTQSPSSLSASVGDRVTITCRASQSIRYNLAWYQQKPGKAPKLLIYAASSLQSGVPSRFSGSGSGTDFTLTISSLQPEDFATYYCHQYIAKPITFGQGTKVEIKR | 0.96 | 50 | 66 | 71 | 16 | 37 | 54 | 0.33 | 0.16 |
| IDT8 (Fab, V domains shown, Fab; also called anti-NOV1401 Fab IDT8) VH: QVQLVESGGGLVKPGGSLRLSCAASGFTFSSNAMHWVRQAPGKGLEWVGRIKSKTSGGTTDYAAPVKGRFTISRDDSKNTLYLQMNSLKTEDTAVYYCARDHYYYPFAYWGQGTLVTVSS VL: DIQMTQSPSSLSASVGDRVTITCRASQSIRYNLAWYQQKPGKAPKLLIYAASSLQSGVPSRFSGSGSGTDFTLTISSLQPEDFATYYCHQYIAKPITFGQGTKVEIKR | 0.16 | 41 | 56 | 69 | 8 | 25 | 42 | 2.15 | 0.96 |
| IDT5 (Fab, V domains shown, Fab; also called anti-NOV1401 Fab IDT5) VH: QVQLVESGGGLVKPGGSLRLSCAASGFTFSSAAVHWVRQAPGKGLEWVGRIKSKADAGTTDYAAPVKGRFTISRDDSKNTLYLQMNSLKTEDTAVYYCARDSPSISSYSIPYFSGMDVWGQGTLVTVSS VL: DIQMTQSPSSLSASVGDRVTITCRASQGIRAWLNWYQQKPGKAPKLLIYAASSLQSGVPSRFSGSGSGTDFTLTISSLQPEDFATYYCHQYITHPPTFGQGTKVEIKR | 0.14 | 55 | 56 | 72 | 17 | 42 | 56 | 0.35 |  |
| IDT4 (Fab, V domains shown, Fab; also called anti-NOV1401 Fab IDT4) VH: QVQLVESGGGLVKPGGSLRLSCAASGFTFSSAAVHWVRQAPGKGLEWVGRIKSKASGGTTDYAAPVKGRFTISRDDSKNTLYLQMNSLKTEDTAVYYCARDSPSISSYSIPYFSGMDVWGQGTLVTVSS VL: DIQMTQSPSSLSASVGDRVTITCRASQGIRAWLNWYQQKPGKAPKLLIYAASSLQSGVPSRFSGSGSGTDFTLTISSLQPEDFATYYCHQYITHPPTFGQGTKVEIKR | 0.97 | 33 | 53 | 60 | 10 | 27 | 39 | 0.31 |  |
| IDT10 (Fab, V domains shown, Fab; also called anti-NOV1401 Fab IDT10) VH: QVQLVQSGAEVKKPGASVKVSCKASGYTFTNYYVHWVRQAPGQGLEWMGWINPYSGNTNYAQKFQGRVTMTRDTSISTAYMELSRLRSEDTAVYYCARGASSIRMSYYLDVWGQGTLVTVSS VL: DIQMTQSPSSLSASVGDRVTITCRASQSISNYLNWYQQKPGKAPKLLIYAASNLQSGVPSRFSGSGSGTDFTLTISSLQPEDFATYYCFQYTHSPATFGQGTKVEIKR | 1.19 | 37 | 45 | 57 | 12 | 25 | 40 | 5.97 |  |
| IDT6 (Fab, V domains shown, Fab with a lambda light chain; also called anti-NOV1401 Fab IDT6) VH: QVQLVQSGAEVKKPGESLKISCKGSGYSFTNYWIGWVRQMPGKGLEWMGIIFPGVSYTKYSPSFQGQVTISADKSISTAYLQWSSLKASDTAMYYCARGSDQTLRGSRAMDYWGQGTLVTVSS VL: QSALTQPASVSGSPGQSITISCTGTSSDVGISNYVSWYQQHPGKAPKLMIYEVSNRPSGVSNRFSGSKSGNTASLTISGLQAEDEADYYCQSYTSLNYVFGGGTKLTVLG |  | 18 | 41 | 37 | 9 | 22 | 38 | 10.1 |  |
